The target in assay [1] is T1, HPV33 VLP protein (human papillomavirus type 33, UniProt P06416 1-499).
T1 construct: Complete VLP protein; no limits of the construct printed, whole entry named; also called HPV33L1
T1 sequence: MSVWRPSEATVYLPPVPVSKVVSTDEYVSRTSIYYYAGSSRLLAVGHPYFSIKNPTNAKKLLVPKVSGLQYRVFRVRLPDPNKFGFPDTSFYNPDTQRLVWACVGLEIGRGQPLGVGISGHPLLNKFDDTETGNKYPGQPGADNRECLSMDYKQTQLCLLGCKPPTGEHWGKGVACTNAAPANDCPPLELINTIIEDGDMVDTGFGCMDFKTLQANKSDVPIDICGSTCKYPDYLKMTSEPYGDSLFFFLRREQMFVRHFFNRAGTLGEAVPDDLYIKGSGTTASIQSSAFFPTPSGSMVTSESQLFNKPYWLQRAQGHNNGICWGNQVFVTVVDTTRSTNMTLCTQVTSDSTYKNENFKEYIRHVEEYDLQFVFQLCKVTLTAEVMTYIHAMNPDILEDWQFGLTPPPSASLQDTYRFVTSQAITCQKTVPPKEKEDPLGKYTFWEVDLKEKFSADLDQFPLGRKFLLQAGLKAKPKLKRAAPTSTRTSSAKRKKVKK
Kind of assay: indirect ELISA, VLP coated at 2 µg/mL, antibody 10 ng/mL, HRP goat anti-rabbit Fc. A general note: ELISA stands for enzyme-linked immunosorbent assay.

Another assay deals with T2, HPV52 VLP protein (human papillomavirus type 52, UniProt Q05138 27-504).
T2 construct: Complete VLP protein; no limits of the construct printed, whole entry named; also called P52SHELL
T2 sequence: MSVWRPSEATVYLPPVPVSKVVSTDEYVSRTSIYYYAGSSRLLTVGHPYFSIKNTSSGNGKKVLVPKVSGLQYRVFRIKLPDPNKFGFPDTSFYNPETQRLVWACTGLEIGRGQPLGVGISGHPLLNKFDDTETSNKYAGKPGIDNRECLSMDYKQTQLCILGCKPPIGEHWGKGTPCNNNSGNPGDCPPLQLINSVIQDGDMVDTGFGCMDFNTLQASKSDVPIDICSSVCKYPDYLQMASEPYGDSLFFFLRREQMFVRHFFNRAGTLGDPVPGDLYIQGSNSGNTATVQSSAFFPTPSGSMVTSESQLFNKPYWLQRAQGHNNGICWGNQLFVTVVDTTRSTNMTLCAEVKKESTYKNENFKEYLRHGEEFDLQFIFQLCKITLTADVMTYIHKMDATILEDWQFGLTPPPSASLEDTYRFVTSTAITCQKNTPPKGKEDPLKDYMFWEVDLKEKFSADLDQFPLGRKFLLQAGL
Described as above.

In the next assay the target is T3, HPV31 VLP protein (human papillomavirus type 31; human …, UniProt P17388 1-475; P06416 474-499).
T3 construct: range 1-475;range 474-499; Complete VLP protein used as coating protein; also called P31SHELL(1-475Y)+HPV33L1(474K-499K)
T3 sequence: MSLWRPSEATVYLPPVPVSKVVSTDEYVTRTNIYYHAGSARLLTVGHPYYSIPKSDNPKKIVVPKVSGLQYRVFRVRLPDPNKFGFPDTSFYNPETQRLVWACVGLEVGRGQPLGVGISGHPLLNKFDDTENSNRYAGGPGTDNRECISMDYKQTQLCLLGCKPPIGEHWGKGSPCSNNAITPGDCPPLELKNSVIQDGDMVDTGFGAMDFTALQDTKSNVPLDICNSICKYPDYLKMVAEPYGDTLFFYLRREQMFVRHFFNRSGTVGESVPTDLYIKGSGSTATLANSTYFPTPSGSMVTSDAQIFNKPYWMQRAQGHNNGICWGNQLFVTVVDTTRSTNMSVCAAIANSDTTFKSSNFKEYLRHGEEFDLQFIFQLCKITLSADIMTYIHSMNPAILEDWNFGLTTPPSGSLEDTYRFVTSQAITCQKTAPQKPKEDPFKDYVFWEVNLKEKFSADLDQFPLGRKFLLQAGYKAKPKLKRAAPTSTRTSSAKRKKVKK
In words: double-antibody sandwich ELISA on the mixture of 13 HPV VLPs.

The target of assay [2] is T1, HPV33 VLP protein. The description is as above.
Another assay deals with T4, HPV51 VLP protein (human papillomavirus type 51, UniProt P26536 1-474).
T4 construct: Complete VLP protein; no limits of the construct printed, whole entry named; also called HPV51L1
T4 sequence: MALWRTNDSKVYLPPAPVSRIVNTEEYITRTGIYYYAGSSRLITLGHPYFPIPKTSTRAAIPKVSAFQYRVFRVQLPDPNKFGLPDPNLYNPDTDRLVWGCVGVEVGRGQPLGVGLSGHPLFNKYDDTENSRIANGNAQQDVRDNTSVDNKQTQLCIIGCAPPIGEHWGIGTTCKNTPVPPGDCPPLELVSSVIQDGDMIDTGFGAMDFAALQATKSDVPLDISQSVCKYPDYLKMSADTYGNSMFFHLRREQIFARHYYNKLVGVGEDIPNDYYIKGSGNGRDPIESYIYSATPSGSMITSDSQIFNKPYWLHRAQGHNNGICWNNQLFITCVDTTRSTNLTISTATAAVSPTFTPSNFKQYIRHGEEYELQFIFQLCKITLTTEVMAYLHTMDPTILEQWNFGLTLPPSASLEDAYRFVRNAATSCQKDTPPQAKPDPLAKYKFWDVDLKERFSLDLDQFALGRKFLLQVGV
The description is as above.

The values below come from US20240158474A1 (SINO BIOLOGICAL, published 2024).

B1: monoclonal antibody HPV6-R003 (antibody, V domains shown)
VH: QQQLEESGGGLVKPGGTLTLTCKASGIDLSNYYMCWVRQAPGKGLEWIGCIYTGSGRTYYASWAKGRFTISKASSTTVTLQMTSLTAADTATYFCARDYLGWRASNIWGPGTLVTVSS
VL: ELVMTQTPSSVSAAVGGTVTINCQASQSVYSNNLVWYQQKPGQPPKLLIYGASTLASGVPSRFKGSGSGTQFTLTISDVVCDDAATYYCGGYVSDSTDGTAFGGGTEVVVKG
notes: here built from variable plus constant region so that the signal peptides are left out; In the sandwich ELISA the same antibody is used as coating antibody and, labelled with horseradish peroxidase, as detection antibody; also called anti-HPV6 L1 protein antibody
With B1, the OD450-blank with HPV33 VLP protein [1] came to 0.047 OD450; with HPV52 VLP protein it was 0.044 OD450. For the same molecule, the binding result is “no binding (tested: mixture 50 ng/mL, each subtype 1/13)” with HPV31 VLP protein; “no binding (tested: mixture 50 ng/mL, each subtype 1/13)” with HPV33 VLP protein [2]; “no binding (tested: mixture 50 ng/mL, each subtype 1/13)” with HPV51 VLP protein.
